# According to patent US10919943B2, “Mutant proteins enabling agrochemical control of plant gene expression” (The Regents of the University of California, priority 2016, dated 2021):
# T1: PYR1*^-MANDI (Arabidopsis thaliana, UniProt O49686, A160V/F108A/F159V/K59R/M158I/S122G/T162D/V81I/Y58H)
# T1 construct: expressed in transfected cells; host or cells: S. cerevisiae strain MAV99 (selection)
# T1 sequence (O49686 1-191 Y58H/K59R/V81I/F108A/S122G/M158I/F159V/A160V/T162D): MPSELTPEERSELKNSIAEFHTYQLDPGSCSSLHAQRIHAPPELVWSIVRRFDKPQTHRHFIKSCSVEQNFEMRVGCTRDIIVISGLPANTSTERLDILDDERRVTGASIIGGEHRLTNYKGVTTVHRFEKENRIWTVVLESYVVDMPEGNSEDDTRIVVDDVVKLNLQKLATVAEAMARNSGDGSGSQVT
# T1 sequence (Q9CAJ0 4-511 R199A/D204A/S322D/V393R/R505A partner): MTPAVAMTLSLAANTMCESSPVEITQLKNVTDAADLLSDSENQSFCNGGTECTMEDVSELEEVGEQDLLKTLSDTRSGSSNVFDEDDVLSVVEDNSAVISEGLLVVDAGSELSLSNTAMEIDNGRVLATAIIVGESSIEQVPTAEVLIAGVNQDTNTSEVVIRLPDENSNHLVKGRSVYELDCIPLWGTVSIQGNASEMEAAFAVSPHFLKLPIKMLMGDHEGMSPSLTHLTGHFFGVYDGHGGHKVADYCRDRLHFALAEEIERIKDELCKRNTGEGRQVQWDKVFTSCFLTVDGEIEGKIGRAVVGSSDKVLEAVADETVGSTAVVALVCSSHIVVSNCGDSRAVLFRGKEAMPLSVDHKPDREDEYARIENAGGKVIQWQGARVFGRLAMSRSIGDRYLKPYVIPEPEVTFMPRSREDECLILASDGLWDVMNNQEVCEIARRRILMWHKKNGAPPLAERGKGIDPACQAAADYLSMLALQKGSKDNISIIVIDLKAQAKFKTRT
# Biological target: T1, PYR1*^-MANDI
# Assay: Yeast two hybrid, mandipropamid-induced interaction of HAB1 variants with pBD-PYR1*^-MANDI
# Format: cell-based
# Details: FIG. 6
# Description: To investigate the effects of overexpressing HAB1^!-2 in Arabidopsis, we used Agrobacterium mediated transformation to generate 35S::GFP-HAB1^!-2 transgenic plants. HAB1^!-2 was cloned from pACT-HAB1^!-2 into pEGAD, a binary vector suitable for plant transformation, generating a 35S-driven GFP-HAB1^!-2 fusion protein. The clone was transformed into Agrobacterium and the floral dip method used to transform Arabidopsis. After selection of T0 seed on soil containing glufosinate, several T1 seedlings were identified. […] As an alternate strategy, we eliminated HAB1's catalytic activity by introducing a mutation in a conserved metal-ion binding residue (D204), which is homologous to D131A mutation in ABI1, previously shown to eliminate phosphatase activity without disrupting wild type receptor-ABI1 interactions (Liang et al., 2011). We used QuickChange mutagenesis to introduce the D204A mutation into pACT-HAB1^!-2, generating pACT-HAB1^!-3. When tested for mandipropamid induced interactions with pBD-PYR1*^-MANDI, HAB1^!-3 is ˜10-fold less sensitive to mandipropamid relative to HAB1^!-2 (FIG. 5).
# D204 is located within HAB1's catalytic active site and binds to one of 3 catalytic Mg^++ ions that participate in catalysis. […] It is likely that disruptions to active site structure introduced by D204A destabilize the PYR1*^-MANDI/HAB1^!-3 interaction relative to HAB1^!-2. We reasoned that suppressor mutations in other HAB1 interface or active site residues could restore sensitivity by strengthening interactions with PYR1*^-MANDI. To identify such suppressors, we mutagenized the pACT-HAB1^!-3 template using NNK mutagenesis in 28 residues located with at the PYR1 binding interface. The residues targeted were: R199, S200, E201, E203, D243, G244, H245, G246, G247, S322, E323, T324, D346, K365, K381, 1383, Q384, W385, Q386, R389, F391, G392, Y404, S431, G433, D436, D492 and N394. The pACT-HAB1^!-3 template was mutagenized in 28 separate NNK mutagenesis reactions using the QuickChange protocol. Mini-libraries, each containing ˜1000 clones, were made for each NNK reaction and plasmid DNA for the 28 mutations prepared, pooled, and then transformed into S. cerevisiae strain MAV99 co-transformed with pBD-PYR1*^-MANDI, and then plated onto selective SD(-Leu,-Trp,-Ura) agar media supplemented with 500 nM mandipropamid. […] S322D and R199A were combined using the Lightning Multi-site Mutagenesis™ (Agilent, USA) method, and the resultant pentuple mutant tested in combination with pBD-PYR1*^-MANDI for sensitivity to mandipropamid using β-galactosidase assays.
molecule,measurement,value
"HAB1*: catalytically inactive orthogonal pentuple HAB1 mutant (protein, listed as Arabidopsis thaliana) MTPAVAMTLSLAANTMCESSPVEITQLKNVTDAADLLSDSENQSFCNGGTECTMEDVSELEEVGEQDLLKTLSDTRSGSSNVFDEDDVLSVVEDNSAVISEGLLVVDAGSELSLSNTAMEIDNGRVLATAIIVGESSIEQVPTAEVLIAGVNQDTNTSEVVIRLPDENSNHLVKGRSVYELDCIPLWGTVSIQGNASEMEAAFAVSPHFLKLPIKMLMGDHEGMSPSLTHLTGHFFGVYDGHGGHKVADYCRDRLHFALAEEIERIKDELCKRNTGEGRQVQWDKVFTSCFLTVDGEIEGKIGRAVVGSSDKVLEAVADETVGSTAVVALVCSSHIVVSNCGDSRAVLFRGKEAMPLSVDHKPDREDEYARIENAGGKVIQWQGARVFGRLAMSRSIGDRYLKPYVIPEPEVTFMPRSREDECLILASDGLWDVMNNQEVCEIARRRILMWHKKNGAPPLAERGKGIDPACQAAADYLSMLALQKGSKDNISIIVIDLKAQAKFKTRT",mandipropamid sensitivity for binding to pBD-PYR1*^-MANDI,nM sensitivity
